Assay results as given in the supplement of paper PMC7877785.
± gives the uncertainty stated by the source.

Experiment: self-splicing fitness, log relative to wild type (ln ratio); higher = more splicing; Tetrahymena group I intron in knt gene, E. coli kanamycin selection, DiMSum; sequences stand for … in CUCUCU…GGAGGGAAAAGUUAUCAGGCAUGCACCUGGUAGCUAGUCUUUAAACCAAUAGAUUGCAUCGGUUUAAAAGGCAAGACCGUCAAAUUGCGGGAAAGGGGUCAACAGCCGUUCAGUACCAAGUCUCAGGGGAAACUUUGAGAUGGCCUUGCAAAGGGUAUGGUAAUAAGCUGACGGACAUGGUCCUAACCACGCAGCCAAGUCCUAAGUCAACAGAUCUUCUGUUGAUAUGGAUGCAGUUCACAGACUAAAUGUCGGUCGGGGAAGAUGUAUUCUUCUCAUAAGAUAUAGUCGGACCUCUCCUUAAUGGGAGCUAGCGGAUGAAGUGAUGCAACACUGGAGCCGCUGGGAACUAAUUUGUAUGCGAAAGUAUAUUGAUUAGUUUUGGAGUACUCGUGGUCG
How it was run: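 Pooled colonies went to amplicon sequencing on an Illumina HiSeq 2500 after six replicate transformations. The plates were LB agar with 100 μg/mL carbenicillin, 50 μM IPTG and 0.2% rhamnose, with or without 25 μg/mL kanamycin, incubated overnight at 37°C or 30°C. The E. coli BL21(DE3) library had all eight P1ex-region intron nucleotides randomised, the intron placed in the knt kanamycin-resistance gene on pET-22b(+). DiMSum fitness is the error-weighted combination of replicate fold changes, kanamycin against none, normalised to wild type.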

| Sequence | self-splicing fitness (ln) (30 °C) | self-splicing fitness (ln) (37 °C) |
| --- | --- | --- |
| CCAUAGCAAUAUUACGCGUG | -2.23 ± 0.095 | -0.856 ± 0.085 |
| CCAUAGCAAUAUUACGCUCG | -1.69 ± 0.1 | -0.407 ± 0.13 |
| CCAUAGCAAUAUUACGCUGU | -4.23 ± 0.39 | -2.54 ± 0.29 |
| CCAUAGCAAUAUUACGGAGA | -4.12 ± 0.28 | -3.35 ± 0.29 |
| CCAUAGCAAUAUUACGGAUA | -2.94 ± 0.21 | -1.81 ± 0.21 |
| CCAUAGCAAUAUUACGGCAU | -4.02 ± 0.24 | -1.78 ± 0.2 |
| CCAUAGCAAUAUUACGGGAG | -2.96 ± 0.15 | -2.89 ± 0.25 |
| CCAUAGCAAUAUUACGGUCU | -3.96 ± 0.33 | -2.53 ± 0.28 |
| CCAUAGCAAUAUUACGUACU | -4.18 ± 0.29 | -2.3 ± 0.18 |
| CCAUAGCAAUAUUACGUAGA | -3.86 ± 0.17 | -2.53 ± 0.16 |
| CCAUAGCAAUAUUACGUCAC | -3.48 ± 0.28 | – |
| CCAUAGCAAUAUUACGUGAG | -0.355 ± 0.045 | 0.00486 ± 0.066 |
| CCAUAGCAAUAUUACGUGCG | -2.49 ± 0.15 | -0.772 ± 0.15 |
| CCAUAGCAAUAUUACGUUAU | -3.34 ± 0.14 | -3.31 ± 0.21 |
| CCAUAGCAAUAUUACGUUUA | -3.25 ± 0.23 | -2.68 ± 0.25 |
| CCCAAGCAAUAUUACGACAG | -4.22 ± 0.15 | -2.39 ± 0.12 |
| CCCAAGCAAUAUUACGACUA | -2.52 ± 0.17 | -2.31 ± 0.18 |
| CCCAAGCAAUAUUACGAGGA | -1.42 ± 0.078 | -0.592 ± 0.074 |
| CCCAAGCAAUAUUACGAUAA | -3.19 ± 0.14 | -3.49 ± 0.2 |
| CCCAAGCAAUAUUACGAUUC | -3.69 ± 0.25 | -2.1 ± 0.26 |
| CCCAAGCAAUAUUACGCACU | -3.57 ± 0.19 | -2.72 ± 0.25 |

| Sequence | self-splicing fitness (ln) (30 °C) | self-splicing fitness (ln) (37 °C) |
| --- | --- | --- |
| CCCAAGCAAUAUUACGCAGU | -3.15 ± 0.14 | -2.32 ± 0.18 |
| CCCAAGCAAUAUUACGCAUA | -3.47 ± 0.19 | -2.49 ± 0.17 |
| CCCAAGCAAUAUUACGCCAG | -2.9 ± 0.19 | -3.07 ± 0.33 |
| CCCAAGCAAUAUUACGCCUA | -2.65 ± 0.26 | -2.8 ± 0.31 |
| CCCAAGCAAUAUUACGCGCG | -3.78 ± 0.23 | -2.24 ± 0.21 |
| CCCAAGCAAUAUUACGCUCG | -3.17 ± 0.2 | -2.14 ± 0.33 |
| CCCAAGCAAUAUUACGGCAC | -4.31 ± 0.36 | -2.5 ± 0.21 |
| CCCAAGCAAUAUUACGGCAG | -3.73 ± 0.17 | -1.65 ± 0.12 |
| CCCAAGCAAUAUUACGGGCA | -3.96 ± 0.18 | -1.82 ± 0.11 |
| CCCAAGCAAUAUUACGGUUG | -3.99 ± 0.17 | -2.52 ± 0.13 |
| CCCAAGCAAUAUUACGUAGC | -2.5 ± 0.42 | -2.74 ± 0.39 |
| CCCAAGCAAUAUUACGUCUA | -4.2 ± 0.3 | -2.92 ± 0.23 |
| CCCAAGCAAUAUUACGUCUU | -3.41 ± 0.11 | -2.25 ± 0.12 |
| CCCAAGCAAUAUUACGUGGG | -3.29 ± 0.11 | -2.82 ± 0.17 |
| CCCCAGCAAUAUUACGAAAC | -3.12 ± 0.2 | -1.89 ± 0.27 |
| CCCCAGCAAUAUUACGACCU | -3.23 ± 0.15 | -2.32 ± 0.23 |
| CCCCAGCAAUAUUACGAGGC | -3.53 ± 0.26 | -3.1 ± 0.35 |
| CCCCAGCAAUAUUACGAGUC | -3.78 ± 0.14 | -3.03 ± 0.17 |
| CCCCAGCAAUAUUACGCAAU | -2.96 ± 0.12 | -1.34 ± 0.12 |
| CCCCAGCAAUAUUACGCAUC | -3.84 ± 0.31 | -2.68 ± 0.3 |
| CCCCAGCAAUAUUACGCCAU | -2.14 ± 0.12 | -2.32 ± 0.17 |
